In US20220073643A1 (NANJING GENSCRIPT BIOTECH, published 2022):
Where a chain is given by its changes, count along the chain named. Several values for one entry are separate records, joined by “and”; a condition that tells them apart may be missing. Equal values may be shown once.

B1: 232C5E3 (antibody, V domains shown)
VH: QAYLQQSGAELVRSGASVKMSCKASGYTFTSHNIHWIKQTPGKGLEWIGYIYPGNGGTNYNQKFKAKATLTADTSSSTAYMQISSLTSEDSAVYFCARDYYGNSFAYWGQGTLVTVSA
VL: DIMMTQSPSSLTETAGEKVSMSCKSSQSLLNSGNQKNYLTWYQQKPGQPPKLLIYWASTRESGVPDRFSGSGSGTDFTLTISSVQAEDLAVYYCQNGYRFPFTFGAGTKLELK
notes: mouse hybridoma mAb
B2: 280F3B6 (antibody, V domains shown)
VH: B1 VH with I34M, I37V, K43Q, A66G, A97T
VL: B1 VL with M3V, T14K, K18R, L30F, S69T, G97D, R99W, F100Y
notes: mouse hybridoma mAb
B3: 203A6C9 (antibody, V domains shown)
VH: QVQLKQSGPGLVQPSQSLSITCTVSGFSLTRYGVHWVRQSPGKGLEWLGVIWSGGNTDYNAAFISRLNIRKDNSKSQVFFKMNSLKPNDTAIYYCARAAYFGNSFDYWGQGTTLTVSS
VL: B1 VL with M3V, T12P, E13V, S20T, E61D, S69T, G97N, R99I, F100Y, F102L
notes: mouse hybridoma mAb
B4: 260G9E8 (antibody, V domains shown)
VH: B1 VH with Y3D, T30A, I34M, I37V, K43Q, N59K, K65T, A66G, S84T
VL: B1 VL with M3V, T14K, S22R, S69T, E87D, G97D, R99M
notes: mouse hybridoma mAb
B5: 240D6F5 (antibody, V domains shown)
VH: B1 VH with I34M, I37V, K43Q, A66G, T74P, S84N, A97T
VL: B1 VL with M3V, T14K, K18R, L30F, S69T, G97D, F100Y
notes: mouse hybridoma mAb
B6: 257G7F7 (antibody, V domains shown)
VH: B1 VH with I34L, I37V, K43Q, G57N, A66G, A97T
VL: B1 VL with M3V, T14K, K18R, L30F, S69T, G97N, R99W
notes: mouse hybridoma mAb
B7: 234E1F12 (antibody, V domains shown)
VH: B1 VH with I34M, I37V, G42R, K43Q, G57D, A66G, A97T
VL: B1 VL with M3V, T14K, K18R, L30F, S69T, G97A, R99W, F100Y
notes: mouse hybridoma mAb
B8: 239H12G9 (antibody, V domains shown)
VH: B1 VH with I37V, K43Q, G57A, T58P, K65R, A66G, A106V
VL: B1 VL with M3V, T14K, S69T, G97D, F100Y
notes: mouse hybridoma mAb
B9: 243F6D2 (antibody, V domains shown)
VH: B1 VH with K23R, I34M, I37V, K43Q, N59Y, A66G, A106V
VL: B1 VL with I2V, M3V, T14K, A15T, S69T, V84L, A86T, G97N, F100Y
notes: mouse hybridoma mAb
B10: 267H5F12 (antibody, V domains shown)
VH: B1 VH with I34M, I37V, K43Q, Y52S, G57Y, K65R, A66G, A97T, A106T
VL: B1 VL with M3V, T14K, K18R, L30F, S69T, D76E, G97N, R99W
notes: mouse hybridoma mAb
B11: 234C9G5 (antibody, V domains shown)
VH: B1 VH with T28A, I34M, I37V, K43Q, Y52S, G57Y, K65R, A66G, S84G, A97T
VL: B1 VL with M3V, T14K, K18R, L30F, S69T, G97N, R99W
notes: mouse hybridoma mAb
B12: 256C3D3 (antibody, V domains shown)
VH: B1 VH with T28A, I34M, I37V, K43Q, Y52S, G57Y, K65R, A66G, S84G, A97T
VL: B1 VL with M3V, T14K, K18R, L30F, S69T, G97N, R99W
notes: mouse hybridoma mAb
B13: 244A1B8 (antibody, V domains shown)
VH: B1 VH with I37V, K43Q, G57A, T58P, K65R, A66G, A106V
VL: B1 VL with M3V, T14K, S69T, G97D, F100Y
notes: mouse hybridoma mAb
B14: 232D7C8 (antibody, V domains shown)
VH: B1 VH with I34M, I37V, K43Q, A66G, Y101F
VL: B1 VL with M3L, E13A, L30F, K36R, K45R, S69T, G97D, F100Y
notes: mouse hybridoma mAb
B15: 252F1B10 (antibody, V domains shown)
VH: B1 VH with I34M, I37V, K43Q, A66G, S84N, A97T
VL: B1 VL with M3V, T14K, K18R, L30F, S69T, G97D, F100Y
notes: mouse hybridoma mAb
B16: 233D5E5 (antibody, V domains shown)
VH: B1 VH with I34M, I37V, G42R, K43Q, G57D, A66G, A97T
VL: B1 VL with M3V, T14K, K18R, L30F, S69T, G97A, R99W, F100Y
notes: mouse hybridoma mAb
B17: 243B4F7 (antibody, V domains shown)
VH: B1 VH with I34L, I37V, K43Q, G57N, A66G, A97T
VL: B1 VL with M3V, T14K, K18R, L30F, S69T, G97N, R99W
notes: mouse hybridoma mAb
B18: 231H4G11 (antibody, V domains shown)
VH: B1 VH with I37V, K43Q, Y52S, G57Y, K65R, A66G, A97T
VL: B1 VL with M3V, T14K, K18R, L30F, N34S, G97N, R99W
notes: mouse hybridoma mAb
B19: 258D11C4 (antibody, V domains shown)
VH: B1 VH with T30S, I34M, I37V, K43Q, A66G, A97T
VL: B1 VL with M3V, T14K, K18R, L30F, E61Q, S69T, G97D, R99W
notes: mouse hybridoma mAb
B20: 257G7B9 (antibody, V domains shown)
VH: B1 VH with I34L, I37V, K43Q, G57N, A66G, A97T
VL: B1 VL with M3V, T14K, K18R, L30F, S69T, G97N, R99W
notes: mouse hybridoma mAb
B21: 259C6F7 (antibody, V domains shown)
VH: B1 VH with T30S, I37V, K43Q, G57D, A66G, A106V
VL: B1 VL with M3V, T5I, T14K, S69T, G97A
notes: mouse hybridoma mAb
B22: 257B1G9 (antibody, V domains shown)
VH: B1 VH with I34M, I37V, K43Q, A66G, A97T
VL: B1 VL with M3V, T14R, K18R, L30F, S69T, G97D, F100Y
notes: mouse hybridoma mAb
B23: 277F1F8 (antibody, V domains shown)
VH: B1 VH with A9P, I34M, I37V, K43Q, Y52N, T58N, A66G, Y107F
VL: B1 VL with M3V, S69T, G97D
notes: mouse hybridoma mAb
B24: 259C6F4 (antibody, V domains shown)
VH: B1 VH with T30S, I37V, K43Q, G57D, A66G, A106V
VL: B1 VL with M3V, T5I, T14K, S69T, G97A
notes: mouse hybridoma mAb
B25: 243B4F2 (antibody, V domains shown)
VH: B1 VH with I34L, I37V, K43Q, G57N, A66G, A97T
VL: B1 VL with M3V, T14K, K18R, L30F, S69T, G97N, R99W
notes: mouse hybridoma mAb
B26: 262H9H6 (antibody, V domains shown)
VH: B1 VH with I34M, I37V, K43Q, Y52S, G57Y, K65R, A66G, A97T, A106T
VL: B1 VL with M3V, T14K, K18R, L30F, S69T, D76E, G97N, R99W
notes: mouse hybridoma mAb
B27: 242H12D6 (antibody, V domains shown)
VH: B1 VH with I34M, I37V, K43Q, A66G, S84N, A97T
VL: B1 VL with M3V, T14K, K18R, L30F, S69T, G97D, F100Y
notes: mouse hybridoma mAb
B28: 257F1E11 (antibody, V domains shown)
VH: B1 VH with I37V, G42R, K43Q, A66G, A97T
VL: B1 VL with M3V, T14K, K18R, L30F, S69T, V91I, G97D, R99W, F100Y
notes: mouse hybridoma mAb
B29: 250F4G1 (antibody, V domains shown)
VH: B1 VH with I34M, I37V, K43Q, G57R, A66G, A97T
VL: B1 VL with M3V, T14K, A15V, K18R, L30F, S69T, G97D, R99W, F100Y
notes: mouse hybridoma mAb
B30: 250F4G4 (antibody, V domains shown)
VH: B1 VH with I34M, I37V, K43Q, G57R, A66G, A97T
VL: B1 VL with M3V, T14K, A15V, K18R, L30F, S69T, G97D, R99W, F100Y
notes: mouse hybridoma mAb
B31: 235A10C9 (antibody, V domains shown)
VH: B1 VH with T30A, I34M, I37V, K43Q, G56S, N59K, K65T, A66G, S84T
VL: B1 VL with M3V, T14K, S22R, S69T, E87D, G97D, R99M
notes: mouse hybridoma mAb
B32: 201F4H6 (antibody, V domains shown)
VH: QVQLKESGPGLVAPSQSLSITCTVSGFSLTSYGVSWVRQPPGKGLECLGVIWAGGNTNYNSALMSRLSISKDKSKSQVFLKMNSLQTDDTAMYYCARVYYGNAMDYWGQGTSVTVSS
VL: DIVMTQSPSSLTVTAGEKVTMSCKSSQSLLNSGNQKSYLTWYQQRPGQPPKLLIYWASTRESGVPDRFTGSGSGTDFTLTISSVQAEDLAVYFCQNVYFFPFTFGSGTKLETK
notes: mouse hybridoma mAb
B33: 219F9B8 (antibody, V domains shown)
VH: QAYLQQSGAELVRSGASVRMSCKASGYTFTSYNMHWVKQTPGQGLEWIGYIYPGNGHTNYNQKFKGKATLTADTSSSTAYMQISSLTSEDSAVYFCATGRGFAYWGQGTLVTVSA
VL: B1 VL with M3V, E13V, S20T, W56R, S69T, G97D, R99S, F100Y, F102L, A106V
notes: mouse hybridoma mAb
B34: 226A4B5 (antibody, V domains shown)
VH: B33 VH with Y27F, M34I, N55S, H57G, T58S, K65M, A79V
VL: DIVMTQSPSSLTVTAGEKVTMSCKSSQSLFNSGNQKNYLTWYQQKPGQPPKLLIYRASTRESGVPDRFTGSGSGTDFTLTISSVQAEDLAVYYCQNDYSYPLTFGTGTKLELK
notes: mouse hybridoma mAb
B35: 198F10B8 (antibody, V domains shown)
VH: B33 VH with T30S, H57G, G66D, Y80F, M81I, A97L
VL: B34 VL with K18R, T106V
notes: mouse hybridoma mAb
B36: 213B10A4 (antibody, V domains shown)
VH: B33 VH with L4V, R19K, K23R, H57G, N59Y
VL: B34 VL with F30L, S73F, T106A
notes: mouse hybridoma mAb
B37: 182D10F1 (antibody, V domains shown)
VH: B33 VH with R19K, T30S, H57G, A97L, A103T
VL: B34 VL with S22N, T106V
notes: mouse hybridoma mAb
B38: 207F8G5 (antibody, V domains shown)
VH: B33 VH with R19K, Y27F, M34I, Y52S, H57G, T58S, Q62L, G66D, A72S, D73A
VL: B34 VL with A15P, T40I, E61D, S83N, V91I, T106A
notes: mouse hybridoma mAb
B39: 194D3B2 (antibody, V domains shown)
VH: B33 VH with R19K, T28P, I48V, H57G, K65R, G66D, S85R, E89D, A97L
VL: B34 VL with T12I, A15P, K18R, F30L, T106I
notes: mouse hybridoma mAb
B40: 222B6G5 (antibody, V domains shown)
VH: B33 VH with A2T, R19K, M34I, Y52S, H57G, N59Y, Q62L, G66D, A72T, D73A
VL: B34 VL with A15P, T40I, E61D, S83N, T106A
notes: mouse hybridoma mAb; also called 222B6G5-2
B41: 217D9G2 (antibody, V domains shown)
VH: QAYLQQSGAELVRSGASVKMSCKASGFTFTSYNIHWVKQTPGQGLEWIGYISPGNGGSNYNLNFKDKATLTAATSSTTAYMQISSLTSEDSAVYFCATGRGFAYWGQGTLVTVSA
VL: B34 VL with A15P, K24R, T40I, E61D, S83N, T106A
notes: mouse hybridoma mAb

Target: T1, human Claudin18.2 (human)
T1 construct: also called CLDN18.2
Assay: cell ELISA, Claudin18.2-expressing HEK293T cells
Protocol: To determine protein binding EC₅₀ by Cell ELISA, 96-well U-bottom microplates were pre-blocked with blocking buffer (5% MPBS, 1×PBS with 5% skim milk) overnight at 4° C. On the next day, the Claudin18.2-expressing HEK293T stable cell line was suspended at 1.5×10⁶ cells/ml in blocking buffer, added to the plate in 100 μl/well and incubated at room temperature for 1 hour.
Raw data were plotted with GraphPad Prism v6.02 software with four parameters, best-fit value program to analyze the EC₅₀.

Row | EC50 | Binder
1 | 0.651 nM | B1
2 | 0.582 nM | B2
3 | 0.916 nM | B3
4 | 0.821 nM | B4
5 | 1.77 nM | B5
6 | ~0.413 nM | B6
7 | 0.57 nM | B7
8 | 0.732 nM | B8
9 | 0.96 nM | B9
10 | ~0.513 nM | B10
11 | 0.562 nM | B11
12 | 0.729 nM | B12
13 | ~0.439 nM | B13
14 | 0.738 nM | B14
15 | 0.53 nM | B15
16 | 0.803 nM | B16
17 | ~0.411 nM | B17
18 | 1.01 nM | B18
19 | ~0.406 nM | B19
20 | 1.02 nM | B20
21 | ~0.443 nM | B21

Row | EC50 | Binder
22 | 0.948 nM | B22
23 | ~4410 nM | B23
24 | 2.32 nM | B24
25 | 0.684 nM | B25
26 | 0.879 nM | B26
27 | 0.744 nM | B27
28 | 57.8 nM | B28
29 | 0.415 nM | B29
30 | 0.199 nM | B30
31 | 0.63 nM | B31
32 | 0.283 nM | B32
33 | 1.16 nM | B33
34 | 1.59 nM | B34
35 | 1.82 nM | B35
36 | 2.33 nM | B36
37 | 1.65 nM | B37
38 | 0.822 nM | B38
39 | 1.09 nM | B39
40 | 1.13 nM and 1.38 nM | B40
41 | 0.908 nM | B41
